Measured values published in paper PMC2878198 (Journal of the American Chemical Society, 2009).

B1: LovD (Aspergillus terreus) (protein)
chain: MGSIIDAAAAADPVVLMETAFRKAVKSRQIPGAVIMARDCSGNLNYTRCFGARTVRRDECNQLPPLQVDTPCRLASATKLLTTIMALQCMERGLVDLDETVDRLLPDLSAMPVLEGFDDAGNARLRERRGKITLRHLLTHTSGLSYVFLHPLLREYMAQGHLQSAEKFGIQSRLAPPAVNDPGAEWIYGANLDWAGKLVERATGLDLEQYLQENICAPLGITDMTFKLQQRPDMLARRADQTHRNSADGRLRYDDSVYFRADGEECFGGQGVFSGPGSYMKVLHSLLKRDGLLLQPQTVDLMFQPALEPRLEEQMNQHMDASPHINYGGPMPMVLRRSFGLGGIIALEDLDGENWRRKGSLTFGGGPNIVWQIDPKAGLCTLAFFQLEPWNDPVCRDLTRTFEHAIYAQYQQG

How the values were obtained:
LovF = LovF (Aspergillus terreus, UniProt Q9Y7D5); assay: FTMS of ACP-bound diketide; type: biochemical; settings: with SAM and NADPH; covalent loading on ACP
Sequence of LovF (Q9Y7D5 whole entry): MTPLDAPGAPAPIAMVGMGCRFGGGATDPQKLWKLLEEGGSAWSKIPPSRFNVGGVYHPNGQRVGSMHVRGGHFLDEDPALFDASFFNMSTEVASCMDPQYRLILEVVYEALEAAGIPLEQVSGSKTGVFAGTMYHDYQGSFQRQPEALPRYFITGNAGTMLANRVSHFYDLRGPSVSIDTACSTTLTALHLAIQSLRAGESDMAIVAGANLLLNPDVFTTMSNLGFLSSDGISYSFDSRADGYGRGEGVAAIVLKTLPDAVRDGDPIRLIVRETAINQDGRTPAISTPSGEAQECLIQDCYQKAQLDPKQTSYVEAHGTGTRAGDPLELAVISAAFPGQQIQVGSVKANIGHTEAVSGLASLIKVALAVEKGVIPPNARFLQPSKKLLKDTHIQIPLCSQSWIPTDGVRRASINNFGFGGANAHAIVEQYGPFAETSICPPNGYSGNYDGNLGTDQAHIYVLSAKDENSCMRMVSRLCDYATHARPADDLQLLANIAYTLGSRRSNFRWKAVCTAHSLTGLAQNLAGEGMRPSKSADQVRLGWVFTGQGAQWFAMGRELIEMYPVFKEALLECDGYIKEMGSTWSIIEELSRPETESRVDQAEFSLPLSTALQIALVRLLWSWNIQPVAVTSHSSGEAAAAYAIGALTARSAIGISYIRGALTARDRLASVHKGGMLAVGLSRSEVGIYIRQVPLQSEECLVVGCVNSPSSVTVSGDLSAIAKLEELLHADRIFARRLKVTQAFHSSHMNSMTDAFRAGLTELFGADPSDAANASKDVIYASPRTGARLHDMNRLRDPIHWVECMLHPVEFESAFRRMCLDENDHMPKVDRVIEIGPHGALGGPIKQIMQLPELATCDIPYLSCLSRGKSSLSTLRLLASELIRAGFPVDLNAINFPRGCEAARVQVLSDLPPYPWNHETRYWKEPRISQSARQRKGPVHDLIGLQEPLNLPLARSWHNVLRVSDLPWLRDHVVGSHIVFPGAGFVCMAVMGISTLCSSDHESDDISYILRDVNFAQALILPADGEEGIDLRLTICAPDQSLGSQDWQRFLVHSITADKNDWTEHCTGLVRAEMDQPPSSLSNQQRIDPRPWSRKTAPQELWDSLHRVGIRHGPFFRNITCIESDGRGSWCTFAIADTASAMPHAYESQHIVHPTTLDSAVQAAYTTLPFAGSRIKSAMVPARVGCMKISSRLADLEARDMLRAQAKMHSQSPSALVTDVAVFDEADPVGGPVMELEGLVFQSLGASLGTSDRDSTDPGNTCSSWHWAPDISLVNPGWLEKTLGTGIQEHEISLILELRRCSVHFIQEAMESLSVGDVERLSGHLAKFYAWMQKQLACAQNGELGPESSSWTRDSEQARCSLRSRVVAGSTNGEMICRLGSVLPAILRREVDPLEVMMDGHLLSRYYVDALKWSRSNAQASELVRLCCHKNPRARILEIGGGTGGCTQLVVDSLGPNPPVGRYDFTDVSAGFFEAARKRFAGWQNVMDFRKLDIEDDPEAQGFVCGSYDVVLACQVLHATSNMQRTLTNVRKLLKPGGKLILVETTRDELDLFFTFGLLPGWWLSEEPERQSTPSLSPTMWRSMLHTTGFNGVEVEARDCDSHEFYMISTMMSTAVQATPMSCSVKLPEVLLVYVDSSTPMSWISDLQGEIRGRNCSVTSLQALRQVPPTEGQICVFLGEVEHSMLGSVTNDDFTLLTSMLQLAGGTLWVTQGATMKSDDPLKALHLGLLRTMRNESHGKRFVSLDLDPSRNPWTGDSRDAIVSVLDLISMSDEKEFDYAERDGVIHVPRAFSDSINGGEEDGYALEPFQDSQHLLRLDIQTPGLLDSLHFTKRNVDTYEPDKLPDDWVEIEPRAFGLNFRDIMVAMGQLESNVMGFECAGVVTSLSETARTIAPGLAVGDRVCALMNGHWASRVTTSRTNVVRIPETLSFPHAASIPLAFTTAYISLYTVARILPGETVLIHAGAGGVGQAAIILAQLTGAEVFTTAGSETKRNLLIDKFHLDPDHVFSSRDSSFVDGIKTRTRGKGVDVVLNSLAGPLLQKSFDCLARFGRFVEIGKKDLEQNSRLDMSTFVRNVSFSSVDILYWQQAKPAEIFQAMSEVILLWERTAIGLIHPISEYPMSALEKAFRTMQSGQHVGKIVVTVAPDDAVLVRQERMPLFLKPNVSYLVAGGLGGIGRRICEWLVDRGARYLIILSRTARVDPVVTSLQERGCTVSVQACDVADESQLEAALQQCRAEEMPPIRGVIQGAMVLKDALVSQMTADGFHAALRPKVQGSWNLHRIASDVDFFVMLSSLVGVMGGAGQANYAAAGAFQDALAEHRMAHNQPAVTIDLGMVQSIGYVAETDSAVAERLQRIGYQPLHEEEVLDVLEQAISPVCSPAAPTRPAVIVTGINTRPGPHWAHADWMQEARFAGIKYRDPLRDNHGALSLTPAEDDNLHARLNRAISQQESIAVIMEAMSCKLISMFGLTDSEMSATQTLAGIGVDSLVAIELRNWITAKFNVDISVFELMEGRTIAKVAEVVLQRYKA

[1] = substrate: CC[C@H](C)C(=O)SCCNC(C)=O; assay: initial velocity of lovastatin formation by HPLC; type: biochemical, Aspergillus terreus; settings: acyl donor; acyl acceptor monacolin J
[2] = substrate: CC[C@H](C)C(=O)SCCNC(=O)CCNC(=O)[C@H](O)C(C)(C)COP(=O)(O)OP(=O)(O)OC[C@H]1O[C@@H](n2cnc3c(N)ncnc32)[C@H](O)[C@@H]1OP(=O)(O)O; assay: initial velocity of lovastatin formation by HPLC; type: biochemical, Aspergillus terreus; settings: acyl donor; acyl acceptor monacolin J

Row | Molecule | FTMS of ACP-bound diketide; LC-MS of product released by LovD (LovF) | Km [1] [mM] | kcat [1] [s⁻¹] | kcat/Km [1] [M⁻¹ s⁻¹] | Km [2] [mM] | kcat [2] [s⁻¹] | kcat/Km [2] [M⁻¹ s⁻¹]
1 | CC(C)(COP(=O)(O)OP(=O)(O)OC[C@H]1O[C@@H](n2cnc3c(N)ncnc32)[C@H](O)[C@@H]1OP(=O)(O)O)[C@@H](O)C(=O)NCCC(=O)NCCSC(=O)CC(=O)O [malonyl-CoA] | we incubated LovF with malonyl-CoA, SAM and NADPH | – | – | – | – | – | –
2 | B1 | – | 9.2 ± 0.9 | 0.0004 ± 1.67e-05 | 0.0267 | 2.5 ± 0.31 | 0.00283 ± 0.000167 | 1.15
